Experimental data as given in patent US20230257435A1, “Wound Healing Composition and Uses Thereof” (AGENCY FOR SCIENCE, TECHNOLOGY AND RESEARCH, priority 2020, published 2023).

Experiments:
[1] = tested on: BJ and HaCaT cells; assay: Transwell migration assay; assay type: cell-based, human; conditions: sAgrin 10 μg/ml as chemoattractant
Protocol: FIG. 5 are assays showing effects of Agrin knockdown on 2D migration of keratinocytes and dermal fibroblasts. (a) RT-PCR analysis for Agrin gene expression in BJ and HaCaT cells treated with either control or Agrin siRNA. Data presented as mean+/−s.d. These knockdown cells were subsequently used for transwell migration assays. Migration was analyzed for a batch of Agrin depleted cells in response to sAgrin (10 μg/ml) in the bottom chambers as a chemoattractant (third panels). Migrating were quantified using ImageJ and represented as mean+/−s.d. (n=3, Students ‘t’ test, p=0.0004, 0.0003, and 0.0005, respectively). Scale bar: 20 μm. (b) Control, Agrin depleted, and Agrin knockdown BJ or primary mouse dermal fibroblasts (DF) cells pre-treated with 10 μg/ml sAgrin for 18 h were subjected to scratch wound assays. Representative bright-field images showing relative migration are presented at the indicated time-points. The mean non-migrated area+/−s.d. was quantified using ImageJ (n=3, Students ‘t’ test, *p<0.05, **p<0.004, ***p<0.0005, ****p=0.000002, ****p<0.000001, respectively). Scale bar: 20 μm. A Western blot verifying the knockdown of Agrin in DF is also shown with GAPDH as loading control. […] Results are quantified as in panel (b) (n=3, Students ‘t’ test, ****p<0.000001, **p<0.005, *p<0.05, respectively, all other p values are represented in the panels). […]

[2] = tested on: keratinocytes; assay: BrdU incorporation after wound scratch (leader/follower cells); assay type: cell-based; conditions: Agrin knockdown; 10 μg/ml sAgrin 18 h; 4 h post-scratch
Protocol: FIG. 6 Agrin impacts keratinocyte proliferation following wound injury. (a) Control, Agrin depleted indicated keratinocytes and those rescued with 10 μg/ml sAgrin for 18 h were labelled with 20 μM BrdU for 12 hours, before proceeding with wound-scratch assays. The cells were fixed at 4 hours post-scratching and stained with an Anti-BrdU and K17 antibodies. Nuclei were counterstained with DAPI. Representative confocal images at the wound edge (leader) and at-least 200 μm away from the wound margin (followers) are shown. The relative percentage of proliferating cells are shown for each condition graphically (n=5-6 images analyzed for each conditions from three replicates, Students ‘t’ test, **p=0.006, *p-0.003, p=0.005, ***p=0.0001, respectively). Scale bar: 10 μm. (b-c) Schematic showing the states of proliferation at the migrating wound margins. Immunohistological sections stained for Ki67 in control and Agrin depleted wound edges and beds at day 7 post-wounding. Filled arrows denote the base of epidermis (Ep), while arrows represent the wound margin. Asterisk (*) denotes the loss of Ki67 proliferation at the wound margins. Scale bar: 100 μm. The percentage of proliferating cells was quantified using Image J (n=4 sections analyzed from two individual mice, Students ‘t’ tests, **p=0.001).

[3] = tested on: MMP12; assay: MMP12 activity assay (gelatin and casein zymography); assay type: cell-based, human; conditions: Agrin silenced keratinocytes, increasing dose of sAgrin 24 h
Protocol: MMP12 activity were monitored via Gelatin and Casein zymography as per previously published protocols. Briefly, control or Agrin depleted HaCaT cells were grown till 80-90% confluency in media without FBS. Supernatants collected from each culture dish were spun down at 10,000 rpm for 5 min and concentrated using Amicon ultra columns. Twenty microliter of medium was mixed with 2×SDS loading buffer and loaded on 10% gelatin or casein gel. The gels were washed with incubation buffer and subsequently stained with Coomassie Brilliant Blue for 1 h. The gels were de-stained for 30 min before imaging using a Chemidoc imager.

[4] = tested on: primary mouse keratinocytes; assay: BrDu proliferation assay of mouse keratinocytes; assay type: cell-based; conditions: increasing concentrations of sAgrin
Protocol: (a) The protein sequence of the C-terminal Agrin fragment used as bio-additive. Gel-filtration profile of purified sAgrin. The recombinant sAgrin were tested in a Coomassie stained gel and by Western blot using an Agrin antibody. (b) BrDu proliferation assay of mouse keratinocytes cells treated with increasing concentrations of sAgrin for the indicated days (n=3 experiments, Students ‘t’ test, **p=0.001 and *p=0.01, respectively). (c) HaCaT/mouse keratinocytes cells treated with increasing doses of sAgrin were subjected to scratch wound assay. Representative bright-field images are shown at indicated times post-wounding. Scale bar: 20 μm. The resulting uncovered wound area presented as mean+/−s.d. was quantified using ImageJ (n=3, Students ‘t’ test, *p<0.01). (d) Untreated or sAgrin (10 μg/ml) HaCaT cells were scratched and allowed to migrate for 4 h. […] The relative diameter of wounds presented as mean+/−s.d. was measured on indicated days and represented graphically from one experiment (n=3 mice per group, One-way ANOVA, *p<0.04, **p<0.004, respectively). […] The degree of proliferating cells were quantified using ImageJ (n=3 sections analyzed from two independent mice wounds, Students ‘t’ tests, *p=0.01). […] The quantification of individual types of collagen fibers were done using ImageJ (n=3 sections analyzed per group, Students ‘t’ test, *p=0.01 and 0.05, respectively).

[5] = tested on: pMLC; assay: Force transmission via ligand conjugated magnetic beads; assay type: cell-based, human

B1: sAgrin: C-terminus recombinant Agrin fragment containing 8 amino acid 'Z8' insert and LG3 domain (SEQ ID NO: 7), His-tagged, expressed in E. coli (protein)
chain: DTLAFDGRTFVEYLNAVTESELANEIPVEKALQSNHFELSLRTEATQGLVLWSGKATERADYVALAIVDGHLQLSYNLGSQPVVLRSTVPVNTNRWLRVVAHREQREGSLQVGNEAPVTGSSPLGATQLDTDGALWLGGLPELPVGPALPKAYGTGFVGCLRDVVVGRHPLHLLEDAVTKPELRPCPTP
modifications: His tag
- trans-well migration (rescue of Agrin knockdown) [1]: in part, rescued
- proliferation of follower cells away from the wound margin [2]: rescued
- MMP12 gelatin and casein degradation catalytic activity [3]: restored by sAgrin supplementation in a dose-dependent pattern
- proliferation (BrDu incorporation) [4]: supported the proliferation of primary mouse keratinocytes
- pMLC recruitment in control cells upon force (bead pull-down Western) ([5]; siControl cells): greater pMLC recruitment in control cells compared to FN, but similar to that induced by Syndecan-4
- pMLC with temporal increase of force application ([5]; up to 60 min): enhanced pMLC mechanoperception
